Columns and labels:
Type in all cases: cell-based, human
[1] = system: TIL 1940 (A2 restricted MART-1 epitope 27-35); assay: Recognition assay for peptide presentation by DC (IFN-γ release ELISA), TIL 1940
Experimental: (§1) Dendritic cells were isolated from cytopheresis MNCs of melanoma patients with the HLA haplotypes HIA-A*0201 and HLA-DRβ1*0401. DC were generated from plastic adherent PBMCs cultured in RPMI with 10% human AB-serum, L-glutamine, penicillin-streptomycin, supplemented with GM-CSF 1000 IU/ml and IL-4 1000 IU/ml. By day 6, immature DC were harvested for electroporation.
(§2) 2.5-3×10^6 DC were re-suspended in 100 μl nucleofector solution and added to 5 μg of DNA plasmid in 2-mm electrode gap cuvettes. Transfected DC were immediately plated with CM containing GM/IL4 or let mature using TNFα 100 ng/ml and PGE2 1000 ng/ml. GFP-transfected DCs were collected 16-24 hours later for FACS analysis.
(§3) DC were pulsed with 1 μg/ml of the relevant peptides at 1×10^6 cells/ml. Stimulants were added after 1 hour incubation without washing the peptide.
TIL 1940 which recognizes the A2 restricted MART-1 epitope 27-35.
(§4) T cell clones were co-incubated with DC in flat 96-well plate for 24 hours. DC were plated immediately after their transfection or pulsing in 6 separated plates, in the presence of GM CSF and IL-4. 1×10^5 T cells were added to 1×10^5 pulsed or transfected DC. In the longitudinal study, T cell clones were added to the transfected/pulsed DC at the following time points: T0=immediately, +12=after 12 hours, 24, 36, 48 and 72 hours. Supernatants were collected after overnight incubation. Interferon gamma release assay was performed to evaluate T cell stimulation using the ELISA method, results are presented in pg/ml.
(§5) Lactacystin was added to DC at concentrations of 25 μM and 50 μM, 4 hours post transfection. DC were incubated with lactacystin for 70 minutes and then washed twice.
(§6) Responding T cells were added after washing the lactacystin and co-incubated. Supernatents were collected after 20 hours.
(§7) For recognition assay of DC epitope presentation, 1×10^5 cells from different T cell clones, that were grown from PBMCs of patients, and were restricted to particular melanoma antigen peptides, were co-incubated with 1×10^5 pulsed or transfected DC, in the presence of GM-CSF and IL-4. T cell clones were added to the transfected/pulsed DC at the following time points: T=0 immediately, T=12, 24, 36, 48, 72 hours. Supernatant was collected after overnight incubation and was subjected to interferon gamma release assay, in order to evaluate the specific T cell activity towards the particular peptide presented by the DC cells.
(§8) The results shown in the following tables represent the amount of Interferon-γ (pg/ml) secreted to the culture medium as an index for T cell stimulation.

[2] = system: TIL 1383 (A2 restricted tyrosinase epitope 369-377); assay: Recognition assay for peptide presentation by DC (IFN-γ release ELISA), TIL 1383
Experimental: as §1, §2, §3
TIL 1383 which recognizes the A2 restricted tyrosinase epitope 369-377.
as §4, §5, §6, §7, §8

[3] = system: T cell clone RB-154 (gp100 154-162 peptide); assay: Recognition assay for peptide presentation by DC (IFN-γ release ELISA), clone RB-154; settings: T = 0 hours, RB-154
Experimental: as §1, §2, §3
as §4, with “Interferon gamma release assay was performed to evaluate T cell stimulation using the ELISA method, results are presented in pg/ml.” left out

[4] = system: T cell clone BR-B8 (DR4-restricted gp100 epitope 44-59); assay: Recognition assay for peptide presentation by DC (IFN-γ release ELISA), clone BR-B8; settings: transfected DC, BR-B8
Experimental: as §1, §2
pcDNA-MEP and pcDNA-gp100 were co-transfected to detect Class II antigen presentation as an internal control.
BR-B8 which recognizes the DR4-restricted gp100 epitope 44-59.
as §4, §5, §6
For recognition assay of DC epitope presentation, 1×10^5 cells from different T cell clones, that were grown from PBMCs of patients, and were restricted to particular melanoma antigen peptides, were co-incubated with 1×10^5 pulsed or transfected DC, in the presence of GM-CSF and IL-4. […]

[5] = system: T cell clone HT 2D9 (A2 restricted gp100 epitope 280-288); assay: Recognition assay with proteasome inhibition (IFN-γ release ELISA), clone HT 2D9; settings: transfected DC
Experimental: as §1, §2
HT 2D9 which reacts with A2 restricted gp100 epitope 280-288.
as §4, §5, §6
Control DC were transfected and incubated with responder T cell clones within the same time frame, without lactacystin. […]

[6] = system: DC with CM (no T cell clone); assay: Recognition assay, CM in place of a T cell clone (IFN-γ background of DC); settings: CM instead of T cell clone
Experimental: as §1, §2, §3, §4, §7, §8

[7] = system: T cell clones specific for different gp100 and MART-1 antigens; assay: Uptake of MEP protein by DC and presentation to T cell clones (IFN-γ secretion, FIG. 2); settings: DC incubated with protein 4 hours
Experimental: DC incubated with MEP-Mel protein were able to specifically stimulate T cell clones reactive to different MEP epitopes of gp100 and MART-1. T cell stimulation was estimated by the amount of IFN-γ secreted to the culture medium (pg/ml).
T cell clones tested: GP 100-209a and 209b specific for gp100 209-217 epitope, GP 100-280 specific for gp100 280-288 epitope, GP 100-154 specific for a gp100 epitope not present in MEP (used as control) and MART-1 specific for the epitope 27-35.
Immature DC were incubated with MEP protein for 4 hours. After DC maturation, dendritic cells were incubated in the presence of T cell clones specific for different gp100 and MART-1 antigens. T cell stimulation was estimated by measuring the interferon gamma (IFN-γ) secretion to the medium. […] A MART-1 specific T cell clone was also found to be stimulated.

B1: MEP-mel: melanoma multiepitope polypeptide, SEQ ID NO: 2 or 57; in Tables 2-9 delivered by transfecting DC with pcDNA3-MEP-Mel plasmid (protein)
chain: PGTMGSCRKSYYLEPGPVTVRKSYLIMDQVPFSVRKSYLYMDGTMSQVRKSYLAGIGILTVRKSYYLEPGPVTVALLIMDQVPFSVALLYMDGTMSQVALLLAGIGILTVSSLYLEPGPVTVAAYIMDQVPFSVSSLYMDGTMSQVAAYLAGIGILTV
With B1 the “Interferon-γ secreted to the culture medium” value (from here on “Interferon-γ secreted”) ([1]; transfected DC from donor 1, T = 0 hours, TIL 1940) was >2000 pg/mL, the “Interferon-γ secreted” value ([1]; transfected DC from donor 2, T = 0 hours, TIL 1940) was >2000 pg/mL and the “Interferon-γ secreted” value ([1]; transfected DC, Lactacystin 0, TIL1941) was 432 pg/mL. The “Interferon-γ secreted” value ([1]; transfected DC, Lactacystin 25 μM, TIL1941) was 62 pg/mL, the “Interferon-γ secreted” value ([1]; transfected DC, Lactacystin 50 μM, TIL1941) was 45 pg/mL and the “Interferon-γ secreted” value ([1]; transfected or peptide-pulsed DC, Donor 1, T = 12 hours, TIL 1940) was >2000 pg/mL. The “Interferon-γ secreted” value ([1]; transfected or peptide-pulsed DC, Donor 1, T = 24 hours, TIL 1940) was >2000 pg/mL, the “Interferon-γ secreted” value ([1]; transfected or peptide-pulsed DC, Donor 1, T = 36 hours, TIL 1940) was >2000 pg/mL and the “Interferon-γ secreted” value ([1]; transfected or peptide-pulsed DC, Donor 1, T = 48 hours, TIL 1940) was >2000 pg/mL. For the same molecule, the “Interferon-γ secreted” value ([1]; transfected or peptide-pulsed DC, Donor 1, T = 72 hours, TIL 1940) was >2000 pg/mL, the “Interferon-γ secreted” value ([1]; transfected or peptide-pulsed DC, Donor 2, T = 12 hours, TIL 1940) was >2000 pg/mL and the “Interferon-γ secreted” value ([1]; transfected or peptide-pulsed DC, Donor 2, T = 24 hours, TIL 1940) was >2000 pg/mL. For the same molecule, the “Interferon-γ secreted” value ([1]; transfected or peptide-pulsed DC, Donor 2, T = 36 hours, TIL 1940) was >2000 pg/mL, the “Interferon-γ secreted” value ([1]; transfected or peptide-pulsed DC, Donor 2, T = 48 hours, TIL 1940) was >2000 pg/mL and the “Interferon-γ secreted” value ([1]; transfected or peptide-pulsed DC, Donor 2, T = 72 hours, TIL 1940) was >2000 pg/mL. The “Interferon-γ secreted” value ([2]; transfected DC from donor 1, T = 0 hours, TIL 1383) was 111 pg/mL, the “Interferon-γ secreted” value ([2]; transfected DC from donor 2, T = 0 hours, TIL 1383) was 387 pg/mL and the “Interferon-γ secreted” value ([2]; transfected DC, Lactacystin 0, TIL1383) was 229 pg/mL. The “Interferon-γ secreted” value ([2]; transfected DC, Lactacystin 25 μM, TIL1383) was 25 pg/mL, the “Interferon-γ secreted” value ([2]; transfected DC, Lactacystin 50 μM, TIL1383) was 0 pg/mL and the “Interferon-γ secreted” value ([3]; transfected DC from donor 1) was 66 pg/mL. For the same molecule, the “Interferon-γ secreted” value ([3]; transfected DC from donor 2) was 132 pg/mL, the “Interferon-γ secreted” value ([4]; Lactacystin 0) was 188 pg/mL and the “Interferon-γ secreted” value ([4]; Lactacystin 25 μM) was 85 pg/mL. For the same molecule, the “Interferon-γ secreted” value ([4]; Lactacystin 50 μM) was 16 pg/mL, the “Interferon-γ secreted” value ([5]; Lactacystin 0) was 1642 pg/mL and the “Interferon-γ secreted” value ([5]; Lactacystin 25 μM) was 244 pg/mL. The “Interferon-γ secreted” value ([5]; Lactacystin 50 μM) was 56 pg/mL, the “Interferon-γ secreted” value ([6]; transfected DC, Donor 1, T = 24 hours) was 94 pg/mL and the “Interferon-γ secreted” value ([6]; transfected DC, Donor 1, T = 36 hours) was 102 pg/mL. The “Interferon-γ secreted” value ([6]; transfected DC, Lactacystin 0) was 5 pg/mL, the “Interferon-γ secreted” value ([6]; transfected DC, Lactacystin 25 μM) was 0 pg/mL and the “Interferon-γ secreted” value ([6]; transfected DC, Lactacystin 50 μM) was 51 pg/mL. For the same molecule, the “Interferon-γ secreted” value ([6]; transfected or peptide-pulsed DC, Donor 1, T = 12 hours) was 120 pg/mL, the “Interferon-γ secreted” value ([6]; transfected or peptide-pulsed DC, Donor 1, T = 48 hours) was 33 pg/mL and the “Interferon-γ secreted” value ([6]; transfected or peptide-pulsed DC, Donor 1, T = 72 hours) was 18 pg/mL. The “Interferon-γ secreted” value ([6]; transfected or peptide-pulsed DC, Donor 2, T = 12 hours) was 248 pg/mL, the “Interferon-γ secreted” value ([6]; transfected or peptide-pulsed DC, Donor 2, T = 24 hours) was 292 pg/mL and the “Interferon-γ secreted” value ([6]; transfected or peptide-pulsed DC, Donor 2, T = 36 hours) was 191 pg/mL. For the same molecule, the “Interferon-γ secreted” value ([6]; transfected or peptide-pulsed DC, Donor 2, T = 48 hours) was 260 pg/mL, the “Interferon-γ secreted” value ([6]; transfected or peptide-pulsed DC, Donor 2, T = 72 hours) was 38 pg/mL and the “T cell stimulation (IFN-γ secretion)” value ([7]; MART-1 specific T cell clone) was “stimulated”. The “T cell stimulation (IFN-γ secretion)” value ([7]; clone recognizing gp100 epitope 280-288) was “also stimulated” and the “T cell stimulation (IFN-γ secretion)” value ([7]; clones 209a and 209b reactive to gp100 epitope 209-217) was “highly stimulated”.

From patent US20060246095A1, “Multiepitope polypeptides for cancer immunotherapy” (HADASIT MEDICAL RESEARCH SERVICES & DEVELOPMENT LTD., priority 2003, published 2006)
